{"source": "paper doi:10.1101/2020.12.31.424863", "about": "(bioRxiv, 2020)", "binders": {"B1": {"name": "Nse2 SUMO ligase (subunit of the budding yeast Smc5/6 holo-complex) (natural protein)", "chain": "MALNDNPIPKSVPLHPKSGKYFHNLHARDLSNIYQQCYKQIDETINQLVDSTSPSTIGIEEQVADITSTYKLLSTYESESNSFDEHIKDLKKNFKQSSDACPQIDLSTWDKYRTGELTAPKLSELYLNMPTPEPATMVNNTDTLKILKVLPYIWNDPTCVIPDLQNPADEDDLQIEGGKIELTCPITCKPYEAPLISRKCNHVFDRDGIQNYLQGYTTRDCPQAACSQVVSMRDFVRDPIMELRCKIAKMKESQEQDKRSSQAIDVL"}, "B2": {"name": "Nse5 (subunit of the budding yeast Smc5/6 holo-complex) (natural protein)", "chain": "MDGALINSVLYVSPRNGAHYFVELTEKHLLAFEMLNSMCLLENYDHVLLFLECQFGKSHNLAVIPFDIILVLFTLSTLSEYYKEPILRANDPYNTSRETLSRRALKLLQKYLAILKEFDSEQYNLYDLELLRCQFFLAIDTLTPKKQKWGFDRFRRTKSESGVTYRQNASVDPELDQAKTFKNPYRSYISCLEQRNTILGNRLLNLKLNEPGEFINMILWTLSNSLQESTPLFLSSHEIWMPLLEILIDLFSCRQDYFIQHEVAQNVSKSLFVQRLSESPLAVFFESLNTRNFANRFSEYVFLNCDYKLPSDNYATPVHPVYNGENTIVDTYIPTIKCSPLYKSQKSLALRRKLIGSCFKLLLRVPDGHRLITPRIVADDVIQGISRTLASFNDILQFKKFFMTENLSQESYFIPLLAEGTLSEILKDTQECVVILTLVENLSDGVSFCNEVIGLVKSKCFAFTEQCSQASYEEAVLNIEKCDVCLLVLLRYLLHLIGTEAILDAKEQLEMLHAIEKNDSGRRQWAKALNLGNDPPLLYPIVSQMFGVHDKSVIIE"}, "B3": {"name": "Nse6 (subunit of the budding yeast Smc5/6 holo-complex) (natural protein)", "chain": "MGSVNSSPNEEFETVPDSQISGFDSPLIPTSVGSYFRDDDDDEKVHPNFISDPENDSLNSDEEFSSLENSDLNLSGAKAESGDDFDPILKRTIISKRKAPSNNEDEEIVKTPRKLVNYVPLKIFNLGDSFDDTITTTVAKLQDLKKEILDSPRSNKSIVITSNTVAKSELQKSIKFSGSIPEIYLDVVTKETISDKYKDWHFISKNCHYEQLMDLEMKDTAYSFLFGSSRSQGKVPEFVHLKCPSITNLLVLFGVNQEKCNSLKINYEKKENSRYDNLCTIFPVNKMLKFLMYFYSDDDNDDVREFFLKAFICLILDRKVFNAMESDHRLCFKVLELFNEAHFINSYFEIVDKNDFFLHYRLLQIFPHLQSALLRRRFSEKQGRTETIQQNIIKEFNEFFDCKNYKNLLYFILTMYGSKFIPFGPKCQVTEYFKDCILDISNETTNDVEISILKGILNLFSKIR"}, "B4": {"name": "Smc5 (subunit of the budding yeast Smc5/6 holo-complex) (natural protein)", "chain": "MTSLIDLGRYVERTHHGEDTEPRSKRVKIAKPDLSSFQPGSIIKIRLQDFVTYTLTEFNLSPSLNMIIGPNGSGKSTFVCAVCLGLAGKPEYIGRSKKVEDFIKNGQDVSKIEITLKNSPNVTDIEYIDARDETIKITRIITRSKRRSDYLINDYQVSESVVKTLVAQLNIQLDNLCQFLSQERVEEFARLKSVKLLVETIRSIDASLLDVLDELRELQGNEQSLQKDLDFKKAKIVHLRQESDKLRKSVESLRDFQNKKGEIELHSQLLPYVKVKDHKEKLNIYKEEYERAKANLRAILKDKKPFANTKKTLENQVEELTEKCSLKTDEFLKAKEKINEIFEKLNTIRDEVIKKKNQNEYYRGRTKKLQATIISTKEDFLRSQEILAQTHLPEKSVFEDIDIKRKEIINKEGEIRDLISEIDAKANAINHEMRSIQRQAESKTKSLTTTDKIGILNQDQDLKEVRDAVLMVREHPEMKDKILEPPIMTVSAINAQFAAYLAQCVDYNTSKALTVVDSDSYKLFANPILDKFKVNLRELSSADTTPPVPAETVRDLGFEGYLSDFITGDKRVMKMLCQTSKIHTIPVSRRELTPAQIKKLITPRPNGKILFKRIIHGNRLVDIKQSAYGSKQVFPTDVSIKQTNFYQGSIMSNEQKIRIENEIINLKNEYNDRKSTLDALSNQKSGYRHELSELASKNDDINREAHQLNEIRKKYTMRKSTIETLREKLDQLKREARKDVSQKIKDIDDQIQQLLLKQRHLLSKMASSMKSLKNCQKELISTQILQFEAQNMDVSMNDVIGFFNEREADLKSQYEDKKKFVKEMRDTPEFQSWMREIRSYDQDTKEKLNKVAEKYEEEGNFNLSFVQDVLDKLESEIAMVNHDESAVTILDQVTAELRELEHTVPQQSKDLETIKAKLKEDHAVLEPKLDDIVSKISARFARLFNNVGSAGAVRLEKPKDYAEWKIEIMVKFRDNAPLKKLDSHTQSGGERAVSTVLYMIALQEFTSAPFRVVDEINQGMDSRNERIVHKAMVENACAENTSQYFLITPKLLTGLHYHEKMRIHCVMAGSWIPNPSEDPKMIHFGETSNYSFD"}}, "key": {"[1]": {"target": "B3", "assay": "cross-linking"}, "[2]": {"target": "B4", "assay": "cross-linking"}, "[3]": {"target": "T1, Smc6 (subunit of the budding yeast Smc5/6 holo-complex) (budding yeast, UniProt Q12749 1-1114)", "T1 sequence": "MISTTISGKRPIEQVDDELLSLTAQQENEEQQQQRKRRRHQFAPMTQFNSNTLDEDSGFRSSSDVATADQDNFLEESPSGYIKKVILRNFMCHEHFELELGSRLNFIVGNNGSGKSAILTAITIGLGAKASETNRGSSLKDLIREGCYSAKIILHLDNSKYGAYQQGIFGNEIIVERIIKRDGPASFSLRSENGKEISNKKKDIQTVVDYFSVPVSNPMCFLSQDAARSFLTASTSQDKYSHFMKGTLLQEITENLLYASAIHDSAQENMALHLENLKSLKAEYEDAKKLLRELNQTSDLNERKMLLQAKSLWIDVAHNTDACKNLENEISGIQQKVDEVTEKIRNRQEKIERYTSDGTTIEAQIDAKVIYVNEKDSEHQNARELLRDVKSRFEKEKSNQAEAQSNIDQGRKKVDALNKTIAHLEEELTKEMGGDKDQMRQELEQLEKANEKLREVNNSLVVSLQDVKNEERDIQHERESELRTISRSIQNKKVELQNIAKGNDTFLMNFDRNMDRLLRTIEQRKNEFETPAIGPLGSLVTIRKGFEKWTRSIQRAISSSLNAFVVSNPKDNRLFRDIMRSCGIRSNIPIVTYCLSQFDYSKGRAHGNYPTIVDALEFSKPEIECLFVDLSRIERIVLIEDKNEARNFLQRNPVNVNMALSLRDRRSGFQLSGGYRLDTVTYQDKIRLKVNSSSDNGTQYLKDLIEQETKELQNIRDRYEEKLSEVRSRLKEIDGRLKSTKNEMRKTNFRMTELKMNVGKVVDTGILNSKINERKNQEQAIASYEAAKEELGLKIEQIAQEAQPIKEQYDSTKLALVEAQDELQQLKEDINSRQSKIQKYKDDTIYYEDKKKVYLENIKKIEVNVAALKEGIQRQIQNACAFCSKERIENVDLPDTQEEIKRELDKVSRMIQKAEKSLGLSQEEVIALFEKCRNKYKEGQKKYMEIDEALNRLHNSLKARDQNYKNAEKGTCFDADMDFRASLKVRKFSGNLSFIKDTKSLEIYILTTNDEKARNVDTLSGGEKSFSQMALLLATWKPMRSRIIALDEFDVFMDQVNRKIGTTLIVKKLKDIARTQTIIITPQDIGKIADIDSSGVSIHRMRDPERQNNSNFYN", "assay": "cross-linking"}, "[4]": {"target": "B2", "assay": "cross-linking"}, "[5]": {"target": "T1, Smc6 (subunit of the budding yeast …)", "assay": "negative stain EM"}}, "data": [{"binder": "B1", "values": [{"measurement": "binding result", "setting": "[1]", "value": "binds"}, {"measurement": "binding result", "setting": "[2]", "value": "binds"}, {"measurement": "binding result", "setting": "[3]", "value": "binds"}]}, {"binder": "B2", "values": [{"measurement": "binding result", "setting": "[2]", "value": "binds"}, {"measurement": "binding result", "setting": "[3]", "value": "binds"}]}, {"binder": "B3", "values": [{"measurement": "binding result", "setting": "[2]", "value": "binds"}, {"measurement": "binding result", "setting": "[3]", "value": "binds"}, {"measurement": "binding result", "setting": "[4]", "value": "binds"}]}, {"binder": "B4", "values": [{"measurement": "binding result", "setting": "[5]", "value": "binds"}]}]}
